Test results published in patent US20100204147A1 (REGENERX BIOPHARMACEUTICALS, published 2010).

Experiments:
Assay in all cases: ELISA, immobilized fragment, without factor XIII or with non-activated factor XIII
[1] = biological target: T1, Recombinant αC-fragment corresponding to the human fibrinogen αC-domain (residues Aα221-610) (human, UniProt P02671 240-629)
T1 construct: By fibrinogen convention they are probably mature Aα chain numbering, without the signal peptide
T1 sequence (looked up): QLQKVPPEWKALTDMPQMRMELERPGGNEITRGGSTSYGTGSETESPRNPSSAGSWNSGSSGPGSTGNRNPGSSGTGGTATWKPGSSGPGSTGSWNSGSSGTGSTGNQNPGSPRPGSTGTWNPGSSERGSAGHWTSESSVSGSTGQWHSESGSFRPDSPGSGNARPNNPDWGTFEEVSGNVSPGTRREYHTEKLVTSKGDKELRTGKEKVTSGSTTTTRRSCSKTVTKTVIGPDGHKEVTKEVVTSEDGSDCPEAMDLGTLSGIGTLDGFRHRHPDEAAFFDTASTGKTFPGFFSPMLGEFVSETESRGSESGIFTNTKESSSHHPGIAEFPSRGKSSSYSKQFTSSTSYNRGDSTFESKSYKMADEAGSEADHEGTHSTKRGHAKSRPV
Method: (§1) The interaction between thymosin β4 and fibrin(ogen) and its fragments in the presence or absence of FXIIIa was studies by ELISA using plastic microliter plates. Wells of microliter plates were coated overnight at −4° C. with fibrinogen and fibrin at 10 μg/mL or with the recombinant fragments of 20 μg/ml, all in 0.1 M NaHCO₃ buffer, pH 8.3. Fibrin was made by addition to the wells of a mixture containing 10 μg/mL fibrinogen 1 NIH u/ml thrombin and 400 u/ml aprotinin, followed by overnight incubation at +4° C. The wells were then blocked by incubation with Super Blocker (Pierce) at 37° C. for 1 h. Following washing with TBS containing 0.05% Tween-20 (TBS-Tween), the indicated concentrations of thymosin β4, FXIII, FXIIIa(Thr) and FXIIIa(Ca) were added to the wells and incubated for 2-2.5 h at 37° C. Bound (incorporated) thymosin β4 was detected by the reaction with rabbit anti-thymosin β4 serum and peroxidase-conjugated anti-rabbit IgG. A TMB Microwell Peroxidase Substrase was added to the wells, and the incorporated thymosin β4 was measured spectrophotometrically at 450 nm.
(§2) The above observations were confirmed by ELISA. […] It should be noted that the incorporation of the γ-module was almost twice lower than that of the αC-domain variants at all concentration studied. When thymosin β4 was incubated with the same immobilized species in the presence of non-activated factor XIII or without it, the incorporation was very low in all cases.

[2] = biological target: T2, Recombinant truncated αC-fragment, NH2-terminal half (residues Aα221-391) (human, UniProt P02671 240-410)
T2 construct: probably the mature Aα chain
T2 sequence (looked up): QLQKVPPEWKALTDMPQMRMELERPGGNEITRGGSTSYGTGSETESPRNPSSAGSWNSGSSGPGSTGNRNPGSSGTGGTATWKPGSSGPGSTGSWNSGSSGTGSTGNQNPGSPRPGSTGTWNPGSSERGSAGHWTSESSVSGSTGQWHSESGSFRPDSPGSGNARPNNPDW
Method: as §1, §2

[3] = biological target: T3, Recombinant truncated αC-fragment, COOH-terminal half (residues Aα392-610) (human, UniProt P02671 411-629)
T3 construct: probably the mature Aα chain; also called Aα392-610 sub-fragment; Aα392-610 fragment
T3 sequence (looked up): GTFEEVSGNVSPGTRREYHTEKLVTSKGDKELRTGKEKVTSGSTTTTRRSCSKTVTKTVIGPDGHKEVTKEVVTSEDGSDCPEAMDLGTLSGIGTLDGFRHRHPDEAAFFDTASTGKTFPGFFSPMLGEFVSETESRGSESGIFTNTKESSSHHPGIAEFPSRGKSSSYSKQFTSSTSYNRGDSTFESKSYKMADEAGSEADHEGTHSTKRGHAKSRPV
Method: as §1, §2

Measured: binding result

B1: Synthetic thymosin β4 (peptide, UniProt P62328 2-44, looked up)
peptide: SDKPDMAEIEKFDKSKLKKTETQEKNPLPSKETIEQEKQAGES
modifications: not fully specified
notes: mature; also called Tβ4
no binding: [1] | [2] | [3]
